We go through ten molecules from US20180148484A1 (Pieris, published 2018).

The target in test [1] is T1, human CD137-Fc fusion protein (Fc-fusion of the full extracellular domain of human CD137, R&D Systems 838-4B) (human, UniProt Q07011 24-186).
T1 construct: extracellular domain; Bought protein; also called huCD137-Fc; KD huCD137; not shown: Fc of human IgG (captured by an anti-human IgG-Fc antibody)
The test is described as follows: SPR (Biacore T200, 37 C), huCD137-Fc captured via anti-human IgG-Fc antibody, mutein as analyte, 1:1 model. As to the method:
Prior to the protein measurements three regeneration cycles were performed for conditioning purposes. Regeneration of the derivatized chip surface was achieved by applying 3M MgCl₂ for 60 s followed by 10 mM glycine, pH 1.7 for 180 s. Anti-human IgG-Fc antibody was utilized to immobilize huCD137-Fc in a subsequent step and taken from the human antibody capture kit (GE Healthcare, BR-1008-39). It was immobilized on a CM5 sensor chip using standard amine coupling chemistry and the immobilization buffer included in the kit (10 mM sodium acetate pH 5.0), resulting in a ligand density of about 13000 resonance units (RU). The reference channel was treated accordingly.
HuCD137-Fc at a concentration of 0.5 μg/mL was captured on this surface for 180 s at a flow rate of 10 μL/min in HBS-EP+ buffer. No target protein was applied to the reference channel. Subsequently, the lipocalin muteins were applied in an appropriate dilution series in HBS-EP+ buffer at a flow rate of 30 μL/min. Regeneration of the derivatized chip surface was achieved as described above. Data were evaluated with Biacore T200 Evaluation software (V 2.0). Double referencing was used and the 1:1 Binding model was used to fit the raw data.
Background: SPR reads the build-up and loss of mass on a sensor chip optically.

For test [2], the target named is T2, human CD137 expressed on cells (human, UniProt Q07011 24-255).
T2 construct: whole, on cells; also called CHO-huCD137; CHO::hCD137
T2 sequence (Q07011 24-255): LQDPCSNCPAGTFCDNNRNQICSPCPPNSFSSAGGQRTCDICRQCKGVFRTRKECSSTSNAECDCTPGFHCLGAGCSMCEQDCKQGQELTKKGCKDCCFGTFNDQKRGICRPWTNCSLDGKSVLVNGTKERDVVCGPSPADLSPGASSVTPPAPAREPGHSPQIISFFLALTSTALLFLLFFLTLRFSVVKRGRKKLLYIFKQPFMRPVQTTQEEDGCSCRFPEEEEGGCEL
The test is described as follows: FACS on CHO cells stably transfected with human CD137; anti-lipocalin primary and Alexa488 secondary antibody. Here is the method: (§1) To perform the experiment, CD137-positive and negative Flp-In CHO cells were incubated with lipocalin muteins, and bound mutein was labeled using anti-lipocalin primary antibodies and fluorescently labeled secondary antibodies, which were detected by FACS analysis as described in the following.
(§2) 1×10⁵ cells per well were pre-incubated for 1 h in ice-cold PBS containing 5% fetal calf serum (PBS-FCS). Subsequently, a dilution series of lipocalin muteins and negative controls typically ranging from 10 μM to 1 nM was added to the cells and incubation was continued on ice for 1 h. Cells were washed twice in ice-cold PBS using centrifugation at 300 g and then incubated with a rabbit anti-lipocalin primary antibody (Pieris, (polyclonal rabbit anti-hNGAL and rabbit anti-hTLC; Pieris) for 30 min on ice. Cells were washed twice in ice-cold PBS, re-suspended in PBS-FCS and incubated 30 min on ice with a secondary anti-rabbit antibody labelled with the fluorescent dye Alexa488 (Life Technologies). Cells were subsequently washed and analyzed using a Guava easyCyte HT Flow cytometer. Typically, a gate was set to exclude non-viable cells and 5.000 events were recorded. Numerical results are expressed as the geometric mean of the fluorescence intensity.

Test [3] concerns the target T2, human CD137 expressed on cells. Put plainly: cell-based or functional assay.
The target of test [4] is T1, human CD137-Fc fusion protein …. Put plainly: SPR, huCD137-Fc captured via anti-human IgG-Fc antibody. The source says: FIG. 1: provides typical measurements of on-rate and off-rate by surface plasmon resonance (SPR) for the interaction of various representative lipocalin muteins (SEQ ID NOs indicated in the graph) with human CD137 (Fc-fusion) as the target. The targets were immobilized via an anti-human IgG-Fc antibody, which was in turn immobilized on a sensor chip using standard amine coupling chemistry. The lipocalin muteins were employed as the soluble analyte which was flowed at different concentrations across the chip surface. […] The dissociation constants resulting from a fit (1:1 binding model) of the depicted data for all SEQ ID NOs are provided in Table 1.
Prior to the protein measurements three regeneration cycles were performed for conditioning purposes. Regeneration of the derivatized chip surface was achieved by applying 3M MgCl₂ for 60 s followed by 10 mM glycine, pH 1.7 for 180 s. Anti-human IgG-Fc antibody was utilized to immobilize huCD137-Fc in a subsequent step and taken from the human antibody capture kit (GE Healthcare, BR-1008-39). […]
HuCD137-Fc at a concentration of 0.5 μg/mL was captured on this surface for 180 s at a flow rate of 10 μL/min in HBS-EP+ buffer. […] Data were evaluated with Biacore T200 Evaluation software (V 2.0). […]

The target of test [5] is T2, human CD137 expressed on cells. The test is described as follows: FACS on CHO cells stably transfected with human CD137. Here is the method: as §1, §2

Numbering of substitutions follows the chain as printed. A value given as a limit tells only on which side of the number the result lay.

B1: lipocalin mutein of SEQ ID NO: 18 (designed binder, not shown: small tags and cut ends)
chain: QDSTSDLIPAPPLSKVPLQQNFQDNQFHGKWYVVGQAGNIRLREDKDPHKMMATIYELKEDKSYDVTGVTFDDKKCTYAISTFVPGSQPGEFTLGKIKSFPGHTSSLVRVVSTNYNQHAMVFFKFVFQNREEFYITLYGRTKELTSELKENFIRFSKSLGLPENHIVFPVPIDQCIDG
notes: expressed in E. coli with a C-terminal Strep-tag II; also called hNGAL mutein
One may read the Kd as the equilibrium constant for the complex coming apart. High values mean a looser complex, low ones a tighter complex. Broadly, the EC50 is the concentration that produces a half-maximal response. Higher therefore signals a need for much substance. Turning to B1, the Kd in test [1] stood at 77 nM. For the same molecule, the concentration for a half-maximal effect (EC50) in test [2] was 13.7 nM.

B2: lipocalin mutein of SEQ ID NO: 15 (designed binder, not shown: small tags and cut ends)
chain: B1 chain with R41K, H49N, G68A, T70A, A79D, S81W
notes: as for B1
In test [1], B2 returned an equilibrium dissociation constant (Kd) of 23 nM. In test [2], this molecule had a concentration giving a half-maximal response (EC50) of 7.8 nM.

B3: lipocalin mutein of SEQ ID NO: 12 (designed binder, not shown: small tags and cut ends)
chain: B1 chain with R41K, H49N, D65N
notes: as for B1
Turning to B3, the Kd in test [1] came out at 36 nM. This counts as double-digit nanomolar.

B4: lipocalin mutein of SEQ ID NO: 14 (designed binder, not shown: small tags and cut ends)
chain: B1 chain with H49N, G68A, T70A, A79D, S81W
notes: as for B1
Take B4: in test [1], the affinity, expressed as Kd, was 9 nM. The EC50 in test [2] was found to be 4.5 nM.

B5: lipocalin mutein of SEQ ID NO: 19 (designed binder, not shown: small tags and cut ends)
chain: B1 chain with R41K, H49N, F83L, L94F
notes: as for B1
On to B5, for which, in test [1], the Kd amounted to 98 nM.

B6: lipocalin mutein of SEQ ID NO: 13 (designed binder, not shown: small tags and cut ends)
chain: B1 chain with H49I, G68M, T70K, T77M, A79D, S81W
notes: as for B1
Regarding B6, in test [1], binding was characterised by a dissociation constant (Kd) of 2 nM. Also, in test [3], the “IFN-γ production, coated mutein, anti-CD3 and anti-CD28 stimulation” value was ≤ 2.5 fold over negative control; the “IFN-γ production, coated mutein, anti-CD3 stimulation only” value is ~2.5 fold over negative control; the “IL-2 production, coated mutein, anti-CD3 and anti-CD28 stimulation” value was ~6 fold over negative control; the “maximum response at 6.25 µg/mL coating concentration (readout not named, probably IL-2), anti-CD3 stimulation only” value was 15 fold over negative control. For the same molecule, in test [3], the “proliferation rate (BrdU), coated mutein, anti-CD3 and anti-CD28 stimulation” value was ≤ 14 fold over negative control; the “proliferation rate (BrdU), coated mutein, anti-CD3 stimulation only” value was ≤ 4 fold over negative control. In test [2], this molecule displayed a half-maximal effective concentration (EC50) of 4.3 nM.

B7: lipocalin mutein of SEQ ID NO: 17 (designed binder, not shown: small tags and cut ends)
chain: B1 chain with R41K, H49V, T77R, A79D, L94F
notes: as for B1
As for B7, in test [1], the Kd was 50 nM. Further, in test [2], the EC50 came out at 17.9 nM.

B8: lipocalin mutein of SEQ ID NO: 20 (designed binder, not shown: small tags and cut ends)
chain: B1 chain with H49S, G68A, T77N
notes: as for B1
Turning to B8, binding in test [1] was characterised by a dissociation constant (Kd) of 138 nM. The same molecule returned a 50% effective concentration (EC50) in test [2] of 18 nM.

B9: negative control, wild-type like lipocalin mutein SEQ ID NO: 4 (other)
chain: QDSTSDLIPAPPLSKVPLQQNFQDNQFHGKWYVVGLAGNAILREDKDPQKMYATIYELKEDKSYNVTSVLFRKKKCDYWIRTFVPGSQPGEFTLGNIKSYPGLTSYLVRVVSTNYNQHAMVFFKKVSQNREYFKITLYGRTKELTSELKENFIRFSKSLGLPENHIVFPVPIDQCIDG
notes: captured by anti-hNGAL antibody in the T-cell assays
Turning to B9, the binding result in test [4] and in test [5] was “no binding” throughout.

B10: lipocalin mutein of SEQ ID NO: 16 (designed binder, not shown: small tags and cut ends)
chain: QDSTSDLIPAPPLSKVPLQQNFQDNQFHGKWYVVGQAGNIKLREDSKMMATIYELKEDKSYDVTGVSFDDKKCTYAIMTFVPGSQPGEFTLGKIKSFPGHTSSLVRVVSTNYNQHAMVFFKFVFQNREEFYITLYGRTKELTSELKENFIRFSKSLGLPENHIVFPVPIDQCIDG
notes: as for B1
B10 showed a Kd in test [1] of 30 nM.
